Target: T1, PD-L1 (Programmed death-ligand 1) on MDA-MB-231 cancer cells (UniProt Q9NZQ7 19-290, limits assumed)
T1 construct: whole, on cells; Endogenous PD-L1 of the MDA-MB-231 cell line
Test: concluded from co-culture 4-1BB reporter assay with PD-L1-expressing MDA-MB-231 cells

T1 sequence (Q9NZQ7 19-290 limits assumed): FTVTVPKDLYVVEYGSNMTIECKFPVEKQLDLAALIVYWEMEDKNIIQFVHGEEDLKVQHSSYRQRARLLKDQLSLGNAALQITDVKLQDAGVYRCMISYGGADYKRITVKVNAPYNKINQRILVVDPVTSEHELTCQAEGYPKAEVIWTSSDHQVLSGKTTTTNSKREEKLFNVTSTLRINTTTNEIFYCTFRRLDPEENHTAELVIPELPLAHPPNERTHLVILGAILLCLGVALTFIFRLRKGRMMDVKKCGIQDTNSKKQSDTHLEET

B1: αCEA-αPDL1-hyFc-4-1BBL 융합단백질 이량체 (Fc fusion)
chain: EVQLVESGGGVVQPGRSLRLSCSASGFDFTTYWMSWVRQAPGKGLEWIGEIHPDSSTINYAPSLKDRFTISRDNAKNTLFLQMDSLRPEDTGVYFCASLYFGFPWFAYWGQGTPVTVSSGGGGSGGGGSGGGGSDIQLTQSPSSLSASVGDRVTITCKASQDVGTSVAWYQQKPGKAPKLLIYWTSTRHTGVPSRFSGSGSGTDFTFTISSLQPEDIATYYCQQYSLYRSFGQGTKVEIKGGGGSGGGGSGGGGSGGGGSEVQLLESGGGLVQPGGSLRLSCAASGFTFSSYDMSWVRQAPGKSLEWVATISDAGGYIYYSDSVKGRFTISRDNSKNTLYLQMNSLRAEDTAVYICAREFGKRYALDYWGQGTTVTVSSGGGGSGGGGSGGGGSDIQMTQSPSSLSASVGDRVTITCKASQDVTPAVAWYQQKPGKAPKLLIYSTSSRYTGVPSRFSGSGSGTDFTFTISSLQPEDIATYYCQQHYTTPLTFGQGTKLEIKGGGGSGGGGSGGGGSEPKSCDKTHTCPPCPSHTQPLGVFLFPPKPKDQLMISRTPEVTCVVVDVSQEDPEVQFNWYVDGVEVHNAKTKPREEQFNSTYRVVSVLTVLHQDWLNGKEYKCKVSNKGLPSSIEKTISKAKGQPREPQVYTLPPSQEEMTKNQVSLTCLVKGFYPSDIAVEWESNGQPENNYKTTPPVLDSDGSFFLYSRLTVDKSRWQEGNVFSCSVLHEALHNHYTQKSLSLSLGKGGGGSDPAGLLDLRQGMFAQLVAQNVLLIDGPLSWYSDPGLAGVSLTGGLSYKEDTKELVVAKAGVYYVFFCLELRRVVAGEGSGSVSLALHLQPLRSAAGAAALALTVDLPPASSEARNSAFGFQGRLLHLSAGQRLGVHLHTEARARHAWQLTQGATVLGLFRVCPEIPAGLPSPRSE
notes: Homodimer by disulfide bonds in the linker; also called IO-129; αCEA-αPDL1-hyFc-h4-1BBL 융합단백질 이량체
Question: Does B1 bind?
Answer: Result: binds

— KR20210098147A (dated 2021)
